Data taken from article PMC3509445 (Biology Open, 2012).

Key:
GST-TLX ΔN (Δ1-187) = GST-TLX ΔN (Δ1-187) (mouse, UniProt Q64104 188-385); assay: pull-down
GST-TLX ΔC341-385 = GST-TLX ΔC341-385 (mouse, UniProt Q64104 1-340); assay: pull-down
Sequence of GST-TLX ΔC341-385 (Q64104 1-340, stated change not applied): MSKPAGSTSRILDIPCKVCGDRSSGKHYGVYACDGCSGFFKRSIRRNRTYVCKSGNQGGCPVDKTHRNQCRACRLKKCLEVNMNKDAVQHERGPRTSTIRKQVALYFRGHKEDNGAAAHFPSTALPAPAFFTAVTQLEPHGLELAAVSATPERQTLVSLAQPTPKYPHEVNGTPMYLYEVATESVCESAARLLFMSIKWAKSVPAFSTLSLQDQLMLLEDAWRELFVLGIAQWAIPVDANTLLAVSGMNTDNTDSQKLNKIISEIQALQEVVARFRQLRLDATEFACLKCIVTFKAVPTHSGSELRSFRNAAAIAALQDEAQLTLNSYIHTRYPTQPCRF

Sequence of GST-TLX ΔN (Δ1-187) (Q64104 188-385, stated change not applied): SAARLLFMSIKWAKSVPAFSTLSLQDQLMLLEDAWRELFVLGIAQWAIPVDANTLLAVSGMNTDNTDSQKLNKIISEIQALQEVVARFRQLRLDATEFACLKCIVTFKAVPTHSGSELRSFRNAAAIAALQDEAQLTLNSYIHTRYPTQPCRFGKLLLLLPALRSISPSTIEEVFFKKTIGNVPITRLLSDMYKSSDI

B1: ThioHis-VHL30Δ95-123 (natural protein, UniProt P40337-1 1-213, looked up)
chain: MPRRAENWDEAEVGAEEAGVEEYGPEEDGGEESGAEESGPEESGPEELGAEEEMEAGRPRPVLRSVNSREPSQVIFCNRSPRVVLPVWLNFDGETHDGLLVNQTELFVPSLNVDGQPIFANITLPVYTLKERCLQVVRSLVKPENYRRLDIVRSLYEDLEDHPNVQKDLERLTQERIAHQRMGD
**Q.** Which results are given for B1?
**A.** binding result (GST-TLX ΔN (Δ1-187)): binds; binding result (GST-TLX ΔC341-385): binds
